{"source": "the DeepSol protein solubility set"}
{"experiment": "soluble on expression in E. coli; label from the status in PepcDB or PDB records"}
{"sequence": "MGSDKIHHHHHHMRNPEVIVIGSGIGGLCCGGLLAKAGKRVLILEAHSKPGGAAHGFEKNGYKFESGPSLWSGIGSWPTTNPLGQVLKALNQKVDLIKYQDWNVQIPEGDYTIGVGDRRFLDQINSISGKDAMKEWENFIQVIKPIGAAANAIPLLALNQNKETVLQLLKRSKTLLTHLKSFKYLGGAFGNLVDDHLKDPFLRNWVELLCFLISGLSKDETNAAAMATLFDDWFNPDAYLEYPKGGSESIVKALLDGIYSFGGDLQLNSKVSQIIIKRNKAIGIELKNGERIFADHIVSNADIWNTIELIPKEISQKWRGKRSKTPKCKSFLHLHLGFNAEGLKDIPLHSIWVNDWSKGITAERNVVVLSIPSALDPTMSPPNKHILHGYTPANEPWERWEGLKIGSKEYERTKEERCSVFWEPIKKLVPDIEERIEVKMLGTPLTHQRFLNTKNGSYGPALSAAEGLFPGNKTPIKNLLLCGSSTFPGIGIPPVAASGAMAANTILGSKFQRDLIEELGL", "soluble on expression in E. coli": "not soluble"}
{"sequence": "MGSSHHHHHHGKTIFVIVPTNEEQVAFLEALAKQDELNFDWQNPPTEPGQPVVILIPSDMVEWFLEMLKAKGIPFTVYVEEGGSENLYFQGGGGGGAQCVRRLVLAATLAAAVALLLCTSSAPVARAAGTGDFTAAQRTNTLAVLQAFGRAIPKLGEKWAGNDFCSWEAVLCNAPDVYVSGISPTYAGTLPEMPVNVDYRHVVIKQLDFSEMGPGLSGTLPASWHSMTSLESLSIEKCESISGSVPPEWGSMTSLSVLNLRGTGISGTLPPQWSGMSKARSLQLQDCDLSGSLPSSWSAIPMLASVSLKGNKFCGVCRTRGIRRLVLLWTSRTSTRAATAWLLRTAQRPPLSPPPRQRPPRTSLTFPLRRGPRLSRLPQPALRHRLNPQPPLRHRLNPRPLLPQQTRRLLHQRRSARWMGVRCARGTPLRGARGAVRTTS", "soluble on expression in E. coli": "not soluble"}
{"sequence": "MAHHHHHHMKGSNTVHTREANANEVHASRQDMRAALLPSDTRILVSRIPASAVSVVSDETRAKGRRRCLVTRTLRRCPEMMSHRRGGHAALVSLLLPLTSHRFCVSPSHVLSIASCAFPCTHSCCVQQGVHPSHLPACLPACRRPRACFVSALCRAHEHAVMFSYNNIIEKGEPLNKEIIDHVLDHVTEFPTPTMVSVGDGKADCIVLENFLTHEECDQLVAACEKVGYTFWLQKNHHDADGEATCDSGSKAVRVVDTIEANFPHLSAKLYERIARVVSLKPKCFSEDMPNAEELFERELAGTWVPHALSENLLFGRYHPGGHFMPHVDGATILDLNTRSFYTLLIYLNDCLHGGETFIFAGEQCNVMYLDEKENQYRGNATQRVGAVYPKKGSAAFFYYNLLHEGAPVLEGHKYICRADLLYHRTPTIFTSEADEKAFKAYQEARLAESHGDAERACQLFQRVRKLSKGVASIFQIE", "soluble on expression in E. coli": "not soluble"}
{"sequence": "MDKFRVQGPTKLQGEVTISGAKNAALPILFAALLAEEPVEIQNVPKLKDVDTSMKLLSQLGAKVERDGSVHIDARDVNVFCAPYDLVKTMRASIWALGPLVARFGQGQVSLPGGCTIGARPVDLHISGLEQLGATIKLEEGYVKASVDGRLKGAHIVMDKVSVGATVTIMCAATLAEGTTIIENAAREPEIVDTANFLITLGAKISGQGTDRIVIEGVERLGGGVYRVLPDRIETGTFLVAAAISRGKIICRNAQPDTLDAVLAKLRDAGADIEVGEDWISLDMHGKRPKAVNVRTAPHPAFPTDMQAQFTLLNLVAEGTGFITETVFENRFMHVPELSRMGAHAEIESNTVICHGVEKLSGAQVMATDLRASASLVLAGCIAEGTTVVDRIYHIDRGYERIEDKLRALGANIERVKGELVPR", "soluble on expression in E. coli": "soluble"}
{"sequence": "MGSDKIHHHHHHADKFVAKCPNEIFIGAILEANSINQDTYKFLKISMNPINMGYTIPIKSQTITPSYNNMMKAIHEALKTNDVLKSNYSFSFVIKKIKSYQELAVNWGQNINLQQLLGITPDYKPQKNIILIDINQSFFSIIMDMPESLSTDPQVLQQLDKLAFINSIQFGRKVILVIESNIDYDKLQEAIDNLLKSKEVSQKELAILANSNIRLMTIGNKEIKDINPDNPFTSILTYLSSTVTPDDFGGPISFSASNIKDNSVFVNYFNVQ", "soluble on expression in E. coli": "not soluble"}
{"sequence": "SLRDSFHFKTYRKRRICPTMTLVLDLDETLIYCTKKRKYHYQKEVDVLINGKYLPLYVCKRPYIDLFFSSLYPFYEIIIFTTAIKSYADTVLNIIDVDHYIDKKFYREDCYEMNEKLYIKNLTNIKKELSKIILIDDSNISGFQYPDNFFPIKKWQGDLNDNELLHLIPFFLNLRKLKDIRSLCSFRLISQKDVSKLLCTSS", "soluble on expression in E. coli": "not soluble"}
{"sequence": "GSGVDFYDVAFKVMLVGDSGVGKTCLLVRFKDGAFLAGTFISTVGIDFRNKVLDVDGVKVKLQMWDTAGQERFRSVTHAYYRDAHALLLLYDVTNKASFDNIQAWLTEIHEYAQHDVALMLLGNKVDSAHERVVKREDGEKLAKEYGLPFMETSAKTGLNVDLAFTAIAKELKRRSMKAP", "soluble on expression in E. coli": "soluble"}
{"sequence": "MTNSEPRRMTCDSEVVWKKLQDGLDVAYRRENMAPKDYMTLYTSVYDYCTSITLSTSRRDGEDGRAESSTPARTAGADFVGHEMYQRVEEYVKAYVIAVCEKGAELSGEDLLKYYTTEWENFRISSKVMDGIFAYLNRHWIRRELDEGHENIYMVYTLALVVWKRNLFNDLKDKVIDAMLELIRSERTGSMINSRYISGVVECLVELGVDDSETDAKKDAETKKLAVYKEFFEVKFLEATRGFYTQEAANFLSNGGNVTDYMIKVETRLNQEDDRCQLYLNSSTKTPLATCCESVLISNQLDFLQRHFGGLLVDKRDDDLSRMFKLCDRVPNGLDELRKSLENHIAKEGHQALERVAMEAATDAKLYVKTLLEVHERYQSLVNRSFKNEPGFMQSLDKAATSFINNNAVTKRAPPQAQLTKSAELLARYCDQLLRKSSKMPDEAELEELQTKIMVVFKYIDDKDVFSKFYTKMFSKRLISELSASDEAEANFITKLKSMCGYEYTARLSKMVNDTQVSKDLTADFKEKKADMLGQKSVEFNVLVLSSGSWPTFPTTPITLPQQLSKTIEIFGQFYNEKFNGRRLTWVYSQSRGEITSTAFPKKYVFTATTAQMCTMLLFNEQDSYTVEQIAAATKMDEKSAPAIVGSLIKNLVLKADTELQKEDEVPMTATVSLNKAYMNKKVRVDLSKFTMKQDAVRDTENVQKNVEEDRKSVISACIVRIMKTRKRVQHQQLMTEVITQLSGRFKPKVEMIKRCIGSLIEKEYMLRTEGQKDLYEYLA", "soluble on expression in E. coli": "not soluble"}
{"sequence": "MESKAENRKKILQMLKNFSDYEKRRQNKDVLKQLTASSKWKSAKKIALYMSMPIEFNLTELFDQSDDKEILIPKCLPERQMIFAKYDKENLVRSKFGLLEPKSEIAVEPDFILVPGLIWNDEGYRIGFGGGYYDRYLANFEGSTASVLYDFQKMDFEAESHDIAVQELFIGRKNNEFLEHHHHHH", "soluble on expression in E. coli": "soluble"}
{"sequence": "TDKVRQNEKQKRSKALAQTQVNKRLLNEHGLNTPPMMKDEADQFVVSPTNWAGIIDQALAPPRTRKSYQKSMVSISGTKAVIETRSSKN", "soluble on expression in E. coli": "not soluble"}
{"sequence": "MKKIILTIGCPGSGKSTWAREFIAKNPGFYNINRDDYRQSIMAHEERDEYKYTKKKEGIVTGMQFDTAKSILYGGDSVKGVIISDTNLNPERRLAWETFAKEYGWKVEHKVFDVPWTELVKRNSKRGTKAVPIDVLRSMYKSMREYLGLPVYNGTPGKPKAVIFDVDGTLAKMNGRGPYDLEKCDTDVINPMVVELSKMYALMGYQIVVVSGRESGTKEDPTKYYRMTRKWVEDIAGVPLVMQCQREQGDTRKDDVVKEEIFWKHIAPHFDVKLAIDDRTQVVEMWRRIGVECWQVASGDF", "soluble on expression in E. coli": "soluble"}
{"sequence": "MGSDKIHHHHHHMALNLKKLPILFLSDSTTSVAISREAKAGRIRKIGPRLYTSNTSDDPAYIIRQNWLQALTLLFPGCVVSNRTALESRVSPAGRVYVTGDYARTLELHGTKFVQVKGSPPVEGDTPLLGIFMASRARALLENLTPSRERSGGELKNLPREMIERRLAELLNVEKEDSVNRLRDQARQIAPLLGLEKEFDELDDLIGTLLRTRKATLADPVAKAHQLGTPYDPHALERVETLWSVLASMPHNYRPTNAGTGTPFYTVSFFDAYFSNYIEGTRFKVDEAKEIVDSGVIPAIRPADGHDILGTYRVVSSLENMRRTPKNPDEFIELLQSRHADIMVGRPDKRPGEFKEEVNYAGATRFVDPDLVRGTLSQGFSLYKSLEHPFARALLIMFLVAEVHPFDDGNGRAARAMMNSELITAEETRIIIPSVFRNEYVASLKRMTNHLQPESFISVMSFAQEFVSRISFDSYASARVQMEGCNAFDDPADDKRLLQPSIS", "soluble on expression in E. coli": "not soluble"}
{"sequence": "MGSDKIHHHHHHMKIDLIISADDIKEEKVKNKTAVVIDMLRATSVITTALNNGCKRVVPVLTVEEALKKVKEYGKDAILGGERKGLKIEGFDFSNSPMEYTEDVVKGKTLIMTTTNGTRAIKGSETARDILIGSVLNGEAVAEKIVELNNDVVIVNAGTYGEFSIDDFICSGYIINCVMDRMKKLELTDAATTAQYVYKTNEDIKGFVKYAKHYKRIMELGLKKDFEYCCKKDIVKLVPQYTNGEIL", "soluble on expression in E. coli": "soluble"}
{"sequence": "MSLAYKGYLIDLDGTIYKGKSRIPAGERFIERLQEKGIPYMLVTNNTTRTPESVQEMLRGFNVETPLETIYTATMATVDYMNDMNRGKTAYVIGEEGLKKAIADAGYVEDTKNPAYVVVGLDWNVTYDKLATATLAIQNGALFIGTNPDLNIPTERGLLPGAGSLNALLEAATRIKPVFIGKPNAIIMNKALEILNIPRNQAVMVGDNYLTDIMAGINNDIDTLLVTTGFTTVEEVPDLPIQPSYVLASLDEWTFNEGHHHHHH", "soluble on expression in E. coli": "soluble"}
{"sequence": "MAANRVAMEEDITESVTLMVDSVSSSPMTPKTVTVKEDETHHPYAFHVSGPRNVASPNWRDLINSSWKDPNYKRTVMACFIQAAYLLELDRQENRNEQNALAPKWWIPFKYKLSQTLIDERDGSIFGAVLEWDRAAAMADLVVIRPSGAPKAVLALRGTILKSLTMRRDIEDDLRFLAWESLKGSVRFNVALEALQSVATRYGSSNVCVVGHSLGAGFALQVGKSLAKEGLFVDAHLFNPPSISVAMSLRNISEKAGVAWKRLMSMLPPKHEPLIQNSNEGQVSPSNVSSGFRNWVPSFYGSNQKPTVDLRKWVPHLYVNDSDYICCHYTDQDGVAEKREMNNKENNSPVVNTNFQAAAKLFVMSKGKQKFHEAHGLEQWWSDNLELQSAIHSSRLISQQLKSLYSIK", "soluble on expression in E. coli": "soluble"}
{"sequence": "GHMASGLTIYFKKPDSWGTPHLYYYDTNPKVDEPTWSEAPEMEHYEGDWYTHTIEGVESVRLLFKDRGTNQWPGPGEPGFFRDQDGWFDGEWHVDRPG", "soluble on expression in E. coli": "soluble"}
{"sequence": "MPRTRVNLQKSEANDRSFTISSLEFCLSQLRKADPNLVKKAIASGDGLTESKNDVSTRLSEAHRYSVQQCLDNSEQLAQLHNQLVHCDNVFERLQATLYSFQDNLGSIGQDMKNLQLQSHHIHQELENRQKVRVELSQFVDDIAVSQTMMKTINDTDANDRGFLEALHELHHKITLILQRGNGDAVAVNDTMPILEGLKLKAVVKVREWLLQKMFQFRKPLSNYQVFQHQLLKCRFFYEFLLHHDLISAKELQDEYIDTISKMFFTYFKAYATRLFKLAMKDVATKEDALGSIDFAKPAGLGAIFSSKQHVVRNKATVFSIGQRHQILSDDFLGALIVPHAVTQNHQSVYLTIELAMARAMSVVLKSCEEQIALSWDAISLHLCICLCDKFTEVLAEREVPEVSDYWNTVTSFLWTRLNLVMSQHYESVKSVDLKKLMHSGSLDARPHFIVRRYAELTSAHLMIAKASGKEMGAKMEAVLENSEDSIEQLLTRMSAMQQTQKNKHVFLINNYDLILSIIDNEESKHTKIYAIVHELEQKSIDDFVEEMLEPHIGYMIKFVNECESLIVQGHTQLLVRYNDKVGTVVANFNAKWRPAVDSINSECIQLFTNFSLGTTILQTIFTKYVQYINRFTKILSHDVFAKNPVCSQLVNVHQVMLEIKRFKPAY", "soluble on expression in E. coli": "not soluble"}
{"sequence": "MGSDKIHHHHHHMPITQTTSAKKSKPIILMTMGQQDRNQHPYQVMTHKYMQPIVEIAGAIPLLMPTCFGIEDVDRYLDMVDGVYLSGAGSNIDPSLYGQENLTPEKSQDVNRDTVDLAIIAGALKRKLPILGICRGMQELNIALGGTLYQKVYSEPGFDDHREDPQTPNHVQYGPRHPIKTVPGSWLAKLIGDKTMVNSLHGQGICTLGKGLEALAYGEDGLIEAIHGPDYGQFILGVQWHPEWQANDNPDSIKLFQAFGSACRGEVSWQSANDAKLTA", "soluble on expression in E. coli": "not soluble"}
